According to the supplement of paper PMC12042874:
± gives the uncertainty stated by the source.

assay: amyloid nucleation score (Sup35N fusion, yeast selection) (log enrichment); library NNK3; higher = more nucleation; inactive = no reads after selection
How it was run: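 In psi-negative yeast, Sup35N fusions carrying peptides of 20 random codons were induced with 100 μM copper sulfate for 24 hours. The cells then grew 7 days at 30°C on medium lacking adenine and uracil, and plasmid inserts from input and output were Illumina-sequenced, excluding sequences with under 100 input reads. Nucleation score is the DiMSum log enrichment of output over input reads, centred on the mode score of non-aggregating sequences.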

| Substance | amyloid nucleation score |
| --- | --- |
| DCGKRSTTINFAWNGAVQPD | 1.04 ± 0.18 |
| IIWLWGNNGKYTMGFLGIGG | inactive |
| GDYGCFSLMQTHTEEEILMR | inactive |
| EYPFFIKSQGR | inactive |
| ISINYVPDMFDLRDYFTVIL | inactive |
| NNTVDDSVFWNELDGHTWLV | inactive |
| WIYRLWQGDIVPRVMTAHTA | -0.735 ± 1.8 |
| WTTNLVNAYLDRHVHNLMPL | inactive |
| AQRGIYWTTKVD | inactive |
| ERVKWDKRMHPVDHWHVTVS | inactive |
| SRPFICSPFQIWAFKFTPMN | inactive |
| LTFGTCFGPYYGVYPNLFIM | inactive |
| SCNFGANYNLKMIFIYVPWV | 1.75 ± 0.08 |
| WYYQVKMISVCSLIEGMWTS | inactive |
| TLRVYAMVLTWAPKLSFWRS | inactive |
| FLTAKKSEFERTLEFRLWWC | inactive |
| LVEISTVERRALIFYRCIDL | -0.481 ± 1.4 |
| NDLWIEMFKS | inactive |
| TFRWFDGIKTLMMD | inactive |
| KAQEHPA | inactive |
| FMISDNMAQCMERGYRAEVF | inactive |
| VIGWKINGGYPERTS | 0.239 ± 0.42 |
| CYSVDRDV | inactive |

| Substance | amyloid nucleation score |
| --- | --- |
| MTAMSFKGYAVIGGVIDRCR | inactive |
| WSMSSVTYNSVCSCGSWCE | 1.87 ± 0.091 |
| LFKGGDSICYSHWSVRSSRK | 1.09 ± 0.12 |
| GNPRNMTVDDSDGKSFYFFY | inactive |
| KLLRQNSY | inactive |
| VVTEVSSLSSTGGSFVWLCR | inactive |
| DDGFYMSVGIVSWFC | 0.843 ± 0.13 |
| FVYSMKSCSYRDLGLNSYLL | inactive |
| VGRVRQVAQLDMGPDMYDRV | inactive |
| CHSRTDKNSFC | inactive |
| VKVLYSIAMGIGHGSIGKVC | -0.835 ± 0.96 |
| RNFVEANAYSFRLVTVTLSM | inactive |
| TDYMLVWSQYRLIHFCNLVV | inactive |
| GPWLLRASNAHTWTRYGLVK | inactive |
| LAAMWPFV | inactive |
| KNNGTSKGVCRLQIMLFGLA | inactive |
| RNNVPGVEYVLDYLFMLKVM | inactive |
| YKIMTLYTSCKRFEVHRGCT | inactive |
| KAHRYVWVPSMPSNMNSHRR | inactive |
| ACSYVGTKMLPGANLRDKPW | -0.387 ± 1.5 |
| TLTYRSSQND | inactive |
| ETESATQPVTVIGVSELIRL | inactive |
| EWKVLYFFGDAFRLFNRWSG | inactive |

| Substance | amyloid nucleation score |
| --- | --- |
| FFSAFID | inactive |
| LSIVLGEDLMRCTRSDSVWK | inactive |
| NWEFDSNAILDSMLVMNRLT | inactive |
| SIKYSGFMWTWVNLLDPTVP | inactive |
| LFSGSHWCRDNMWSSGAIDA | inactive |
| VTCVVVVGVHVRRHGFQEYV | inactive |
| DSQLFKICGLVCTTYVALCF | -0.732 ± 0.59 |
| CFYMTSSDYQEGNG | inactive |
| SRFVYSSGY | inactive |
| FVQNDNYKWVWL | inactive |
| VNCWLLAVFTASSATLHNTR | 0.776 ± 0.14 |
| WQYLNFS | 0.75 ± 0.29 |
| YIKCKFF | inactive |
| LTGFIGICQLVSYFNEVALQ | inactive |
| NSNSGFLVSFLWLSFWNSIS | inactive |
| PRMRA | inactive |
| RGFFSHWSFDVTHYVLVRTL | inactive |
| TDCELGLLRL | inactive |
| LFDRTLL | inactive |
| RNVQLMVPFTAGVLWVLQCK | inactive |
| CTLRTVCHTGLLWVTFHRQY | 0.675 ± 0.18 |
| ISDRFQAESCSRCSLVSSMF | inactive |
| EHEFYTKDNFLRGIFYNTNL | inactive |

| Substance | amyloid nucleation score |
| --- | --- |
| FSLVAKMSFESLATNRWDSR | 1.41 ± 0.15 |
| HSVGWHFPLCFSTQMTLVRS | inactive |
| GTLCVGPLKASCETGKLKFF | inactive |
| GNGNFIRY | inactive |
| TLLGNINPLLW | inactive |
| TCTSQMLVWYFFPFLINMSW | inactive |
| GFRKWKLIVD | inactive |
| SPSEMIAFWFNSTFVTSASG | -0.46 ± 1.7 |
| YLLVHLAKCIFNWHLSSIEM | -0.109 ± 0.78 |
| CNVLEKYTLE | inactive |
| YMFRFGSTDCEAYV | inactive |
| SVGLDRTSQEHSAYVGNVHS | inactive |
| IQNIVRLDSVVSMVFGRLVI | inactive |
| GTSICDVKFAPLYSE | inactive |
| IALKGRAFAHEGCLRGRRGG | inactive |
| FFNSVMIYGWS | 0.07 ± 0.3 |
| REITSWLDIDFL | inactive |
| NRVPQWRRRQVGGD | inactive |
| LLWVQQHWLKNDTLVTYKAK | inactive |
| TSRDQPRNVYVVVAVI | inactive |
| YWDDSMKYDLKMVERSVGGK | inactive |
| SGNWTDRTVIPYHYYIDKLN | inactive |
| FSMSPSTTYRAFGHYSPGQH | -0.074 ± 0.5 |

| Substance | amyloid nucleation score |
| --- | --- |
| MIVSSYFYLVRIQYEFHAGW | 0.172 ± 0.43 |
| VHFLSTVGMKLTALYKGVVM | inactive |
| RSSLNDNRYKCNSGSSVYGS | inactive |
| VNSDEPMHWRSSGNYRARIV | inactive |
| RNVWRCSLPYHFIF | inactive |
| EVLYR | inactive |
| RTYYASWENDSMGAVSYCAS | inactive |
| VSRTSVSRRFYCIARMCSPV | inactive |
| SRMSGVVGIAKV | inactive |
| LCYCLKAVDYRLNFFHKWRH | inactive |
| SDRNSEGLTLF | inactive |
| LACSSSCILSPVVGIGFSWN | 1.89 ± 0.055 |
| IERSNFLQCPVRGLRNTARV | 0.526 ± 0.26 |
| LQNLNGLIVKSCL | inactive |
| FWFFTSMLVSVCLMRASRCL | inactive |
| CSIPFVWEIHHM | inactive |
| SLFFSYV | inactive |
| LIGQFISYIKSVIGSDRKGC | inactive |
| CFCYSLDSLLQVGNNS | inactive |
| FLSVECLRAMTWCQLLDAGS | inactive |
| RLGFRRIRIIRSSGFSEEWH | 0.224 ± 0.39 |
| VLGWGSIVMNDEGELSVGMV | inactive |
| SREIYSMVMQSHLVQWGVIA | inactive |

| Substance | amyloid nucleation score |
| --- | --- |
| PEPHLKSEKYNCSGDWPLPL | inactive |
| WTLFWNPLI | inactive |
| GIIVLLVPETQCRCFGDLIR | inactive |
| LDVGIVYSLVVCRKIRRSL | inactive |
| CVWILSQLG | -0.797 ± 1.9 |
| NKLIRSEVSLLAMCMCSGNG | inactive |
| IGISSGVTKICYGGTFKHMP | inactive |
| YLPAHIYMK | inactive |
| EKFMPHTELLNVWGLRQILM | inactive |
| NIARRTIKLTPFFSIFCVYS | 3.2 ± 0.055 |
| VACCAGFDNRAVLWGCANPI | inactive |
| YCGTY | inactive |
| MRNLGGLCIALPEVVEGTDF | inactive |
| GKRNEWN | inactive |
| EVLLFVFKEGTHLVGLW | inactive |
| NTTHNVNV | inactive |
| LVLQLGFKKSPLRVYRSSGN | inactive |
| LIRTARSLYWAYVHLAVSWR | inactive |
| RLAFVHKMTLRMSRERYLAI | -0.009 ± 0.35 |
| YETSVH | inactive |
| INPRSYADLYYIRFNHWWLL | inactive |
| RFVTSLYDMLSI | inactive |
| NIWNWNNRVLFCEAGMGTCI | inactive |

| Substance | amyloid nucleation score |
| --- | --- |
| FWKWL | inactive |
| NGVFWGRKSRSYEFWSFYFQ | -0.052 ± 0.62 |
| IAAPRGMTDSRVVMRCLHVN | inactive |
| LYRKWRE | inactive |
| YGVWCSYKFVYSCDPYDSAG | 0.557 ± 0.15 |
| CLTIHWTVFSGAARLSFIMT | inactive |
| WDTILDLGGNDVEGSFPVTE | inactive |
| VDEADVRKHMT | inactive |
| GHKVSSIDNHFPILSSEAFK | inactive |
| MVIYSLHRTLIIICGRANLT | inactive |
| DIDRRQRVMHSPMKAWEEVG | -0.045 ± 0.98 |
| NIRYVWCQKRLTCARSWNPV | inactive |
| SGWYWICLKHRGQVDHPLST | inactive |
| GHCKCGPVGPNKRTAR | inactive |
| FSYRPSNCYIR | inactive |
| LYVGEKLVHFLEARMD | inactive |
| TCLLIYFMFHGEVMPLWSI | inactive |
| HYRDFPSRN | inactive |
| YHWSGRLL | inactive |
| SISTQCWSPYVAFHSWKTH | 0.416 ± 0.79 |
